{
  "source": "paper PMC5593958",
  "about": "“Dissecting the link between the enzymatic activity and the SaPI inducing capacity of the phage 80α dUTPase” (Scientific Reports, 2017)",
  "key": {"[1]": {"molecular_target": "T1, Dut80α (Dubowvirus dv80alpha, UniProt A4ZF98)", "T1 construct": "pET28a, His-tagged, E. coli BL21 (DE3), HisTrap and size exclusion; homotrimer; last residues cited about 170", "test": "thermal shift (Sypro Orange)", "type": "binding", "settings": "1 mM dUPNPP, 5 mM MgCl2, 10 μM protein, 75 mM HEPES pH 7.5, 250 mM NaCl; absolute Tm, not a shift; decimal comma as printed", "text": "thermal shift (Sypro Orange) on Dut80α"}, "[2]": {"tested_on": "O=c1ccn([C@H]2C[C@H](O)[C@@H](COP(=O)(O)OP(=O)(O)OP(=O)(O)O)O2)c(=O)[nH]1", "test": "malachite green phosphate assay", "type": "biochemical, Dubowvirus dv80alpha", "settings": "pH 7.5", "text": "malachite green phosphate assay on Dut80α"}, "[3]": {"molecular_target": "phage 80α dUTPase D95E mutant (Dut80α D95E) (Staphylococcus aureus phage 80α)", "test": "BLI"}, "[4]": {"molecular_target": "phage 80α dUTPase D95E mutant (Dut80α D95E) (Staphylococcus aureus phage 80α)", "test": "crystal structure"}},
  "data": [
    {"compound": "O=c1ccn([C@H]2C[C@H](O)[C@@H](COP(=O)(O)NP(=O)(O)OP(=O)(O)O)O2)c(=O)[nH]1", "note": "[dUPNPP, 2′-Deoxyuridine-5′-[(α,β)-imido]triphosphate]", "values": [
      {"measurement": "Thermal Unfolding (°C) / +dUPNPP", "setting": "[1]", "result": "58 ± 0,09"}
    ]},
    {"compound": "(Dubowvirus dv80alpha)", "values": [
      {"measurement": "Km", "setting": "[2]", "result": 7.5, "unit": "µM"}
    ]},
    {"compound": "Stl repressor from SaPIbov1 (natural protein)", "values": [
      {"measurement": "Kd", "setting": "[3]", "result": "> 1", "unit": "mM"}
    ]},
    {"compound": "phage 80α dUTPase D95E mutant (Dut80α D95E) (enzyme)", "values": [
      {"measurement": "stoichiometry N", "setting": "[4]", "result": 3}
    ]}
  ]
}
